Numbering of substitutions follows the chain as printed. One block for each molecule: values may come before it.
Columns and labels:
recombinant human IL-19 [1] = biological target: T1, recombinant human IL-19 (Homo sapiens, UniProt Q9UHD0); assay: Bio-layer interferometry (BLI) binding kinetics and affinity (Octet Red96); conditions: 25° C.; 1:1 binding model
T1 sequence (Q9UHD0 25-177): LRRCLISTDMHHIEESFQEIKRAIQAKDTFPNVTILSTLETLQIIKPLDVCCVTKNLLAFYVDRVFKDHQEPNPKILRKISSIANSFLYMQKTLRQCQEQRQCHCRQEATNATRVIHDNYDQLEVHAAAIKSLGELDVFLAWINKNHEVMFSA
Experimental: Bio-layer interferometry (BLI) assay, measured with a Octet Red96® instrument available from ForteBio (using HBS-EP+ running buffer (GE Healthcare, 10 mM Hepes pH7.4+150 mM NaCl+3 mM EDTA+0.05% surfactant P20) at 25° C.), is used to measure binding of the exemplified IL-19 antibodies of the present invention to recombinant human IL-19 (having the amino acid sequence set for in SEQ ID NO: 1).
Except as noted, all reagents and materials are from ForteBio (Freemont, Calif.). An AMQ biosensor is used to immobilize antibody of interest for analysis. […] Recombinant human IL-19 is prepared to concentrations of 270, 90, 30, 10, 3.33, 1.11, 0.370, and 0 (blank) nM by dilution into running buffer. Each analysis consists of: (1) capturing antibody samples on biosensors for 300 secs; (2) establishing a baseline by incubating antibody loaded biosensors with running buffer for 60 secs; (3) incubating antibody loaded biosensors with serially diluted recombinant human IL-19 for 300 secs to monitor association phase; (4) return of biosensor to running buffer to monitor dissociation phase.
Binding data is processed using standard double-referencing and fit to a 1:1 binding model using Data Analysis v9.0 evaluation software, to determine the association rate (kon, M^−1 s^−1 units), dissociation rate (koff, s^−1 units), and Rmax (nm units). The equilibrium dissociation constant (KD) was calculated from the relationship KD=koff/kon, and is in molar units.

recombinant human IL-19 [2] = biological target: T1, recombinant human IL-19; assay: Binning by cross-competition binding assay (Octet Red96)
Description: Binning experiments involve competing monoclonal antibodies against one another in a pairwise and combinatorial fashion for binding to a specific antigen. A “bin” is a relative concept, based upon the epitope regions represented within the panel of monoclonal antibodies being tested. Two antibodies belong to the same bin if they cannot pair with one another and share the same blocking profile when tested against the other antibodies (or bins of antibodies) in the test panel. Binning of exemplified antibodies of the present invention may be performed by cross-competition binding assays using the Octet Red96®, available from ForteBio, according to manufacturer instruction. Briefly, to determine if two antibodies share overlapping epitope regions, an exemplified antibody is labeled with biotin and captured onto streptavidin sensor tip. The coated biosensor up is then incubated with recombinant human IL-19 to saturate the capture antibody binding sites. The capture antibody-antigen complex is then incubated with a detection antibody. […] Antibodies with a same binding profile are grouped together into the same bin.

[3] = biological target: T2, human IL-19 / human IL-20R beta Fc-fusion protein (Homo sapiens, UniProt Q9UHD0); assay: BLI in vitro neutralization: IL-19 captured by antibody, then incubated with IL-20R beta Fc; conditions: block of IL-19 binding to soluble receptor
T2 sequence (Q9UHD0 25-177): T1 sequence (Q9UHD0 25-177)
Description: Alternatively, a biophysical assay such as bio-layer interferometry (BLI) may be used for assessing neutralization of IL-19 by antibodies of the present invention. Binding between a ligand immobilized on the biosensor tip surface and an analyte in solution produces an increase in optical thickness at the biosensor tip, which results in a wavelength shift (expressed in nm). According to such assay, the IL-19 receptor (i.e., […]) is expressed in a membrane-free manner (such as with an Fc-fusion e.g. IL20Rbeta Fc chimera protein from R&D Systems catalog 1788-IR-050). […] The immobilized antibodies are then incubated with recombinant human IL-19 protein diluted to 100 nM using HBS-EP+ running buffer (GE Healthcare, 10 mM Hepes pH7.4+150 mM NaCl+3 mM EDTA+0.05% surfactant P20) for 240-300 secs. The human IL-19, after binding to the anti-IL-19 antibody, is assessed by incubation with human IL-20R beta Fc-fusion protein for 240-300 secs. The ability of the antibody to block or neutralize binding of the IL-19 ligand to the soluble receptor is observed as a minimal (<0.025 nm) increase in the wavelength during this step of the assay.

recombinant human IL-19 [4] = biological target: T1, recombinant human IL-19; assay: PathHunter eXpress IL20RA/IL20RB dimerization assay (cell-based neutralization); set-up: host or cells: PathHunter eXpress IL20RA/IL20RB cells (DiscoverX 93-1027E3) carry the receptor partners; conditions: eight experiments
Description: PathHunter® eXpress IL20RA/IL20RB dimerization assay (DiscoverX product code 93-1027E3) is used to assess ability of exemplified antibodies to prevent binding of human IL-19 recombinant protein in a cell-based assay format. The assay detects ligand induced dimerization of two subunits of a receptor-dimer pair. The cells have been engineered to co-express one receptor subunit fused to enzyme donor and a second dimer partner fused to enzyme acceptor. Binding of an agonist to one receptor subunit induces it to interact with its dimer partner, forcing complementation of the two enzyme fragments resulting in the formation of a functional enzyme that hydrolizes a substrate to generate a chemiluminescent signal. […] Human IL-19 recombinant protein with and without exemplified antibodies mixture is then incubated with cells overnight at 37° C./5% CO2. Substrate buffer is added to cells and incubated at room temperature for 1 hour in the dark before luminescent detection.

B1: R_3: rabbit-derived IL-19 antibody; LCVR SEQ ID NO: 50, HCVR SEQ ID NO: 54 (antibody, V domains shown)
VH: QCQSLEESGGGLVEPEGSLTLTCKASGFSFSSSYWICWVRQAPGKGLEWIACTDTFSGDTYYASWAKGRFTISKTSSTTVTLRMTSLTDADTATYFCARDIFGTAVHISLWGPGTLVTVSS
VL: ADVVMTQTPSSVEAAVGGTVTIKCQASQSIGSSLAWYQQKPGQRPKLLIYGASTLASGVPSRFKGSGSGTEFTLTISDLECADAATYYCQCHYHGSSYWDNSFGGGTEVVVK
kon (recombinant human IL-19 [1]): 391000 M⁻¹ s⁻¹
Binning Group (recombinant human IL-19 [2]): 3

B2: R_1: rabbit-derived IL-19 antibody; LCVR SEQ ID NO: 34, HCVR SEQ ID NO: 38 (antibody, V domains shown)
VH: QQLEESGGGLVQPEGSLTLTCTASGFSFSSSYWICWVRQAPGKGLEWLACIDTGVSGDTYYANWAEGRFTISKTSSTTVTLQMTSLTAADTATYFCARDIFGSAIDNSLWGPGTLVTVSS
VL: AIDMTQTPASVSEPVGGTVTIKCQASQSISSYLAWYQQKPGQPPKLLIYSASTLASGVPSRFRGSGSGREFTLTISDLECADAATYYCQCHYHGSSYWDNSFGGGTEVVVK
kon (recombinant human IL-19 [1]): 33300 M⁻¹ s⁻¹
Binning Group (recombinant human IL-19 [2]): 3

B6: M_3: murine-derived IL-19 antibody; LC SEQ ID NO: 18, HC SEQ ID NO: 22 (antibody)
heavy: QIQLVQSGPELKKPGETVKISCKASGYTFTTYGMSWVKQAPGKGLKWMVWINTYSGVPTYVDDFKGRFAFSLETSASTAYLQINNLKNEDTATYFCARRDEGFAYWGQGTLVTVSAAKTTPPSVYPLAPGSAAQTNSMVTLGCLVKGYFPEPVTVTWNSGSLSSGVHTFPAVLQSDLYTLSSSVTVPSSTWPSETVTCNVAHPASSTKVDKKIVPRDCGCKPCICTVPEVSSVFIFPPKPKDVLTITLTPKVTCVVVDISKDDPEVQFSWFVDDVEVHTAQTQPREEQFNSTFRSVSELPIMHQDWLNGKEFKCRVNSAAFPAPIEKTISKTKGRPKAPQVYTIPPPKEQMAKDKVSLTCMITDFFPEDITVEWQWNGQPAENYKNTQPIMDTDGSYFVYSKLNVQKSNWEAGNTFTCSVLHEGLHNHHTEKSLSHSPGK
light: DIKMTQSPSSMYASLGERVTITCKASQDINSYLSWFQQKPGKSPKTLIYRANRLVDGVPSRFSGSGSGQDYSLTISSLEYEDMGIYFCLQYDDFPYTFGGGTKLEIKRADAAPTVSIFPPSSEQLTSGGASVVCFLNNFYPKDINVKWKIDGSERQNGVLNSWTDQDSKDSTYSMSSTLTLTKDEYERHNSYTCEATHKTSTSPIVKSFNRNEC
Neutralization [3]: No

B7: R_4: rabbit-derived IL-19 antibody; LCVR SEQ ID NO: 58, HCVR SEQ ID NO: 62 (antibody, V domains shown)
VH: QCQSVEESGGRLVTPGTPLTLTCTVSGIDLSIYAMGWVRQAPGKGLEYIGIIDTTGTAYYARWAKGRFTISKTSATVALKITSPTTEDTATYFCARDSGSLYYGSYALWGPGTLVTVSS
VL: ADVVMTQTPSSVSEPVGGTVTIKCQASQSIYSYLSWYQQKPGQPPKLLIYEASKLASGVPSRFKGSGSGTQFTLTISGVECADAATYYCQQGYSSSNVDNTFGGGTEVVVT
kon (recombinant human IL-19 [1]): 152000 M⁻¹ s⁻¹
Binning Group (recombinant human IL-19 [2]): 4

Second part, led by results:

kon (recombinant human IL-19 [1]): 428000 M⁻¹ s⁻¹
Binning Group (recombinant human IL-19 [2]): 3
B3: R_2: rabbit-derived IL-19 antibody; LCVR SEQ ID NO: 42, HCVR SEQ ID NO: 46 (antibody, V domains shown)
VH: B2 VH with E66K
VL: B1 VL with S10A, Q28E, S32N, S33A, R44P, G51D, T54K, E71Q

% inhibition +/− SEM (maximum signal inhibition percentage) (recombinant human IL-19 [4]): 105.03 +/− 1.38%
B4: M_5: murine-derived IL-19 antibody; LC SEQ ID NO: 312, HC SEQ ID NO: 313 (antibody)
heavy: EVQLQQSGPVLVKPGASVKMSCKASGYPFNDYFLGWVKQSHGKSLEWIGSINPDNDYTMSNQKFKGKATLTVDKSSSTAYMELNSLTSEDSAVYYCARYDYDWAWFAHWGQGTLVTVSAAKTTPPSVYPLAPGSAAQTNSMVTLGCLVKGYFPEPVTVTWNSGSLSSGVHTFPAVLQSDLYTLSSSVTVPSSTWPSETVTCNVAHPASSTKVDKKIVPRDCGCKPCICTVPEVSSVFIFPPKPKDVLTITLTPKVTCVVVDISKDDPEVQFSWFVDDVEVHTAQTQPREEQFNSTFRSVSELPIMHQDWLNGKEFKCRVNSAAFPAPIEKTISKTKGRPKAPQVYTIPPPKEQMAKDKVSLTCMITDFFPEDITVEWQWNGQPAENYKNTQPIMDTDGSYFVYSKLNVQKSNWEAGNTFTCSVLHEGLHNHHTEKSLSHSPGK
light: DIVMTQSPSSLAMSVGQKVTMSCKSSQSLLSSYNQKNYLAWYQRKPGQSPKLLVYFASQRATGVPDRFIGSGSGSDFTLTISSVQAEDLADYFCQQHTRLPITFGAGTKLELKRADAAPTVSIFPPSSEQLTSGGASVVCFLNNFYPKDINVKWKIDGSERQNGVLNSWTDQDSKDSTYSMSSTLTLTKDEYERHNSYTCEATHKTSTSPIVKSFNRNEC
Neutralization [3]: Yes (minimal (<0.025 nm) increase in the wavelength)

% inhibition +/− SEM (maximum signal inhibition percentage) (recombinant human IL-19 [4]): 98.59 +/− 0.42%
B5: M_1: murine-derived IL-19 antibody; LC SEQ ID NO: 2, HC SEQ ID NO: 6 (antibody)
heavy: EVQLQQSGPVLVKPGASVKMSCKASGYKFTDYFVGWVKQSHGKSLEWIGYVDPENGYTRCNQKFKGKATLTVDKSSSTAYMELNSLTSEDSAVYYCARYDYDWAWFTNWGQGTLVTVSAAKTTPPSVYPLAPGSAAQTNSMVTLGCLVKGYFPEPVTVTWNSGSLSSGVHTFPAVLQSDLYTLSSSVTVPSSTWPSETVTCNVAHPASSTKVDKKIVPRDCGCKPCICTVPEVSSVFIFPPKPKDVLTITLTPKVTCVVVDISKDDPEVQFSWFVDDVEVHTAQTQPREEQFNSTFRSVSELPIMHQDWLNGKEFKCRVNSAAFPAPIEKTISKTKGRPKAPQVYTIPPPKEQMAKDKVSLTCMITDFFPEDITVEWQWNGQPAENYKNTQPIMDTDGSYFVYSKLNVQKSNWEAGNTFTCSVLHEGLHNHHTEKSLSHSPGK
light: B4 light with R44Q, Q59T, A61P, T62P, T98E
Neutralization [3]: Yes (minimal (<0.025 nm) increase in the wavelength)

From US12459997B2, “Compounds and methods targeting interleukin-19” (Eli Lilly and Company, priority 2018, dated 2025)
